From publication PMC5123051, “Neutralization mechanism of a highly potent antibody against Zika virus” (Nature Communications, 2016)

Target: T1, Zika virus envelope (E) protein on purified ZIKV particles, strain H/PF/2013 (Zika virus H/PF/2013 (French Polynesia …, strain))
T1 construct: envelope protein E of Zika virus strain H/PF/2013, cut product of the viral polyprotein, on the virus surface; Stood in the assay as whole virus particles: 180 copies of E in icosahedral symmetry, as dimers, three dimers forming a raft, 30 rafts; M protein and the lipid membrane are also present; E carries a glycan on the '150 glycan loop'; also called molecules A, B and C; source: Aedes …
Experiment: cryo-EM structure; Fab C10 mixed with purified ZIKV at 1.5 Fab to every E protein, 30 min at 37 °C then ~1 h on ice; pH8.0 (NTE buffer); 4.0 Å
Settings: both partners purified

B1: Fab C10 (Fab, V domains shown)
VH: EVQLVESGAEVKKPGASVKVSCKASGYTFTSYAMHWVRQAPGQRLEWMGWINAGNGNTKYSQKFQDRVTITRDTSASTAYMELSSLRSEDTAIYYCARDKVDDYGDYWFPTLWYFDYWGQGTLVTVS
VL: ALTQPASVSGSPGQSITISCTGTSSDVGGFNYVSWFQQHPGKAPKLMLYDVTSRPSGVSSRFSGSKSGNTASLTISGLQAEDEADYYCSSHTSRGTWVFGGGTKLTVL
notes: heavy chain variable region of C10; human IgG1 heavy chain constant region, the part that stays in the Fab after papain digestion; light chain variable region of C10; human lambda 2 light chain constant region; Fab cut from the IgG with papain; also called Fab fragment of HMAb C10; Fab regions of C10 IgG; source: C10 IgG from HEK293T cells, transiently co-transfected, protein A purified; Fab by …
- stoichiometry N: 180 copies of Fab per virus particle
